Experimental data reported in US20210292393A1 (published 2021).

Columns and labels:
[1] = biological target: SARS-CoV-2 full length spike protein, V367F mutant (SARS-CoV-2, UniProt P0DTC2 14-1273)
[2] = biological target: SARS-CoV-2 full length spike protein, D614G mutant (SARS-CoV-2, UniProt P0DTC2 14-1273)
[3] = biological target: SARS-CoV-2 full length spike protein, V367F mutant, expressed on the surface of CHO cells (SARS-CoV-2, UniProt P0DTC2 14-1273)
[4] = biological target: SARS-CoV-2 full length spike protein, D614G mutant, expressed on the surface of CHO cells (SARS-CoV-2, UniProt P0DTC2 14-1273)
[5] = biological target: SARS-CoV-2 full length spike protein, V367F mutant (SARS-CoV-2, UniProt P0DTC2 14-1273); remark: listed apart in the source
[6] = biological target: SARS-CoV-2 full length spike protein, D614G mutant (SARS-CoV-2, UniProt P0DTC2 14-1273); remark: listed apart in the source

Binder	median fluorescence fold over isotype control [1] [fold over isotype]	median fluorescence fold over isotype control [2] [fold over isotype]	median fluorescence intensity, fold over isotype control [3] [fold over isotype]	median fluorescence intensity, fold over isotype control [4] [fold over isotype]	further results
antibody 455 (antibody, V domains shown) VH: QVQLVQSGAEVKKPGSSVKVSCKASGGTFSSYAISWVRQAPGQGLEWMGRIIPILGIANYAQKFQGRVTITADKSTSTAYMELSSLRSEDTAVYYCARDSIVVPAAIISGYYYYGMDVWGQGTTVTVSS VL: QSVLTQPPSVSAAPGQKVTISCSGSSSNIGNNYVSWYQQLPGTAPKLLIYDNNKRPSGIPDRFSGSKSGTSATLGITGLQTGDEADYYCGTWDSSLSAGRVFGGGTKLTVL	32.3	8.24	–	–	–
antibody 346 (antibody, V domains shown) VH: EVQLVQSGAEVKKPGESLKISCKGSGYSFTSYWIGWVRQMPGKGLEWMGIIYPGDSDTRYSPSFQGQVTISADKSISTAYLQWSSLKASDTAMYYCARHGPQDGYSSSWYLDYWGQGTLVTVSS VL: not shown	–	–	7.05	8.57	–
antibody 311 (antibody, V domains shown) VH: QVQLQESGPGLVKPSETLSLTCTVSGYSISSGYYWGWIRQPPGKGLEWIGSIYHSGSTYYNPSLKSRVTISVDTSKNQFSLKLSSVTAADTAVYYCAREETLGSSWYESYIDYWGQGTLVTVSS VL: SYVLTQPPSVSVAPGKTARITCGGNNIGSKSVHWYQQKPGQAPVLVIYYDSDRPSGIPERFSGSNSGNTATLTISRVEAGDEADYYCQVWDSSSDHPRVFGGGTKLTVL	–	–	29.6	59.7	–
antibody 330 (antibody, V domains shown) VH: QVQLVESGGGVVQPGRSLRLSCAASGFTFSSYAMHWVRQAPGKGLEWVAVISYDGSNKYYADSVKGRFTISRDNSKNTLYLQMNSLRAEDTAVYYCARDFQYYDFWSGYLTVSSPTSYYGMDVWGQGTTVTVSS VL: NFMLTQPHSVSESPGKTVTISCTGSSGSIASNYVQWYQQRPGSAPTTVIYEDNQRPSGVPDRFSGSIDSSSNSASLTISGLKTEDEADYYCQSYDSSNVVFGGGTKLTVL	–	–	22.4	56.5	–
antibody 441 (antibody, V domains shown) VH: EVQLVESGGGVVRPGGSLRLSCAASGFTFGDYGMSWVRQAPGKGLEWVSGINWNGGSTGYADSVKGRFTISRDNAKNSLYLQMNSLRAEDTALYYCASDLVRGVIGFDYWGQGTLVTVSS VL: SYELTQPPSVSVSPGQTARITCSGDALPKQYAYWYQQKPGQAPVLVIYKDSERPSGIPERFSGSSSGTTVTLTISGVQAEDEADYYCQSADSSGITGVFGGGTKLTVL	6.24	14.9	–	–	–
antibody 461 (antibody, V domains shown) VH: EVQLVESGGGLVKPGGSLRLSCAASGFTFSSYSMNWVRQAPGKGLEWVSSISSSSSYIYYADSVKGRFTISRDNAKNSLYLQMNSLRAEDTAVYYCASNPAAGQEAYYYYGMDVWGQGTTVTVSS VL: not shown	6.89	27.8	–	–	–
antibody 451 (antibody, V domains shown) VH: EVQLVESGGGLVQPGGSLRLSCAASGFTFSTYWMSWVRQAPGKGLEWVANIKQDGSEKYYVDSVKGRFTISRDNAKNSLYLQMNSLRAEDTAVYYCARLGGSSWYFDYWGQGTLVTVSS VL: not shown	29.9	6.29	–	–	–
antibody 355 (antibody, V domains shown) VH: QVHLVESGGGVVQPGRSLRLSCAASGFTFSSFPMHWVRQAPGKGLEWVAVISYDGGDEHYTDSVEGRFTISRDNSLNTLYLQMSSLRLEDTAVYYCARDRYDSSGYYYVSDYWGQGTLITVSS VL: SYELTQPPSVSVSPGQTARISCSGDALPKQYAYWYQQKPGQAPVLVIYKDSERPSGIPERFSGSSSGTTVTLTISGVQAEDEADYYCQSADSRGTDPWVFGGGTKLTVL	–	–	8.08	20.3	–
antibody 338 (antibody, V domains shown) VH: QVQLQESGPGLVKPSETLSLTCAVSGYSISSDYYWGWIRQPPGKGLEWIGSIYHSGSTYYNPSLKSRVTISIDTSKNQFSLKLSSVTAADTAVYYCARDPGNYDILTGIFDYWGQGTLVTVSS VL: QSALTQPASVSGSPGQSITISCTGTSSDVGVYNYVSWYQQHPGKAPKLMIYDVTNRPSGVSNRFSGSKSGNTASLTISGLQAEDEADYYCSSYTSSSTLAVYVFGTGTKVTVL	–	–	33.2	7.81	–
antibody 261 (antibody, V domains shown) VH: QVQLVESGGGVVQPGRSLRLSCAASGFTFSSYAMHWVRQAPGKGLEWVAVISYDGSNKYYADSVKGRFTISRDNSKNTLYLQMNSLRAEDTAVYYCARDEAYYDILTGYINAPKNYYYYGMDVWGQGTTVTVSS VL: DIQMTQSPSSLSASVGDRVTITCRASQGIRNDLGWYQQKPGKAPKRLIYAASSLQSGVPSRFSGSGSGTEFTLTISSLQPEDFATYYCLQHNSYPFTFGPGTKVDIK	–	–	–	–	median fluorescence intensity, fold over isotype control [5]: 59.9 fold over isotype; median fluorescence intensity, fold over isotype control [6]: 87 fold over isotype
antibody 356 (antibody, V domains shown) VH: QVQLVQSGAEVKKPGASVKVSCKASGYTFTSYGISWVRQAPGQGLEWMGWISAYHGNTNYAQKLQGRVTMTTDTSTSTAYMELRSLRSDDTAVYYCARVGLWWLGHADAFDIWGQGTMVTVSS VL: DIQMTQSPSSLSASVGDRVTITCRASQGIRNDLGWYQQKPGKAPKRLIYAASSLQSGVPSRFSGSGSGTEFTLTISSLQPEDFATYYCLQHNSYPLTFGGGTKVEIK	–	–	60.4	90.8	–
antibody 358 (antibody, V domains shown) VH: QVQLVESGGGVVQPGRSLRLSCAASGFNLNSYAMHWVRQASGKGLEWVSLMSYDGSIKYYADSVKGRFTVSGDNSRNTLFLQMNSLRPDDSALYYCVRGGVSGPNSFDLWGQGTTVTVSS VL: DVVMTQSPLSLPVTLGQPASISCRSSQSLVYSDGSTYVNWFQQRPGQSPRRLIYKVSNRDSGVPDRFSGSGSGTDFALKISRVEAEDVGVYYCMQGTHWPVTFGQGTKVEIK	–	–	38.4	8.74	–
antibody 312 (antibody, V domains shown) VH: QVQLVQSGAEVKKPGASVKVSCKASGYTFTSYGISWVRQAPGQGLEWMGWISAYNGNTNYAQKLQGRVTMTTDTSTSTAYMELRSLRSDDTAVYYCARMLIAAAGTSRDYYGMDVWGQGTTVTVSS VL: not shown	–	–	11.3	24.5	–
antibody 449 (antibody, V domains shown) VH: not shown VL: QSALTQPASVSGSPGQSITISCTGTSSDVGGYNYVSWYQQHPGKAPKLMIYEVSNRPSGVSNRFSGSKSGNTASLTISGLQAEDEADYYCSSYTSSSTVVFGGGTKLTVL	36.9	68.1	–	–	–
antibody 453 (antibody, V domains shown) VH: QVQLVESGGGVVQPGRSLRLSCAASGFTFSSYAMYWVRQAPGKGLEWVAVISYDGSNKYYADSVKGRFTISRDNSKNTLYLQMNSLRAEDTAVYYCARDRPHYYGSGRKILNLYGMDVWGQGTTVTVSS VL: DIQLTQSPSFLSASVGDRVTITCRASQGISSYLAWYQQKPGKAPKLLIYAASTLQSGVPSSFSGSGSGTEFTLTISSLQPEDFATYYCQQLNSYPPFTFGPGTKVDIK	39.4	7.41	–	–	–
antibody 318 (antibody, V domains shown) VH: QVQLVESGGGVVPPGRSLSLPCAASGFSFSAYAMHWLRQAPGKGLEWVAVISYDGTVKYVADSVRGRFTISRDNSNNTLYLQMTSLRSDDTAVYYCARDLGALAAAPTVYFVHWGQGTLVTVSS VL: SYVLTQPPSVSVAPGKTATITCAGEDIGRKSVHWYQQKPGQAPVLVIFYYSDRPSGIPDRFSGSVSGNTATLTIGRVEAGDEADYFCQVWDRTTNHVIFGGGTKVTVL	–	–	40.3	9.92	–
antibody 357 (antibody, V domains shown) VH: QVQLVQSGAEVKKPGSSVKVSCKASGGTFSSYAISWVRQAPGQGLEWMGRIIPILGIANYAQKFQGRVTITADKSTSTAYMELSSLRSEDTAVYYCARGPIAVAGIGPWFDPWGQGTLVTVSS VL: QSVLTQPPSVSAAPGQKVTISCSGSSSNIGNNYVSWYQQLPGTAPKLLIYDNNKRPSGIPDRFSGSKSGTSATLGITGLQTGDEADYYCGTWDSSLSAVVFGGGTKLTVL	–	–	28	5.37	–
antibody 314 (antibody, V domains shown) VH: EVQLVESGGGLVKPGGSLRLSCAASGFTLSSYSMNWVRQAPGKGLEWVSCISSSSSYIYYADSVKGRFTISRDNAKNSLYLQMNSLRAEDTAVYYCASDPLDIVVVPAARDYYYYGMDVWGQGTTVTVSS VL: not shown	–	–	19.6	30.4	–
antibody 458 (antibody, V domains shown) VH: QVQLVESGGGVVQPGRSLRLSCAASEFTFATYAMHWVRQAPGKGLEWVALISQDGSNKHYADSVKGRFTISRDNSKNTLYLQMNSLRAEGTAIYYCARESLEAAGPPFDYWGQGTLVTVSS VL: SYELTQPPSVSVSPGQTATIICSGDKLGEKYASWYQQKPGQSPALVIYQDRKRPSGIPERFSGSNSGNTATLTISGTQAMDEADYYCQAWDSSNSVVFGGGTKLTVP	27.4	6.23	–	–	–
antibody 448 (antibody, V domains shown) VH: QVQLVQSGAEVKKPGASVKVSCKASGYTFTSYGISWVRQAPGQGLEWMGWISAYNGNTNYAQKLQGRVTMTTDTSTSTAYMELRSLRSDDTAVYYCAIELLEGFYYYYGMDVWGQGTTVTVSS VL: SYELTQPPSVSVSPGQTARITCSGDALPKQYAYWYQQKPGQAPVLVIYKDSERPSGIPERFSGSSSGTTVTLTISGVQAEDEADYYCQSADSSGTYPYVVFGGGTKLTVL	5.79	13.3	–	–	–
